Source: patent publication US20120220522A1

Target: insulin receptor (IR), B-isoform (UniProt P06213)
Assay: relative binding affinity to insulin receptor, displacement of 125I-human insulin

relative activity (relative binding affinity): < 0.5%
Substance: ester insulin lispro folded (2) (ligand)
